We go through three molecules from PMC11697037, “Structural insights into the regulation of monomeric and dimeric apelin receptor” (Nature Communications, 2025).

The target in data set [1] is T1, human WT APJR (apelin receptor), cryo-EM construct with a deletion of 50 residues from the C-terminus (human, UniProt P35414).
T1 construct: The N-terminal fusion is HA signal peptide, Flag tag, 10x His tag and BRIL, in pFastBac1; No cleavage of the fusion is mentioned; The protein is seen both as a monomer and as a homodimer; also called ProtA; ProtB; source: Trichoplusia ni (Hi5) insect cells, baculovirus; alone or co-expressed with Gi and/or JN241-9; purified (LMNG/CHS, Talon resin, SEC); not shown: His10, N-terminal, kept
The data set is described as follows: cryo-EM structure; purified APJR (LMNG/CHS) incubated 1 h at 4 °C with 125 µg JN241(-Fc), SEC in 20 mM HEPES pH 7.5, 100 mM NaCl; no Gi. Particulars: both partners purified.

Data set [2] concerns the target T1, human WT APJR (apelin receptor), …. As to the kind of experiment: cryo-EM 2D classification; JN241-APJR complex with the Fc tag removed from the sdAb; data quality insufficient for a high-resolution structure. The note with it: both partners purified.
Data set [3] concerns the molecule itself. The data set is described as follows: cryo-EM structure; JN241-9-APJR complex, APJR and JN241-9 co-expressed in Hi5 cells (1:1 virus ratio), co-purified without added ligand; no Gi.

B1: JN241-Fc, antagonistic single-domain antibody (sdAb) JN241 with Fc tag (VHH)
VHH: QVQLVESGGGSVQSGGSLTLSCAASGSTYSSHCMGWFRQAPGKEREGVALMTRSRGTSYADSVKGRFTISQDNTKNILYLQMNSLKPEDTAMYYCAAVPRAGIESGAYCKWNMKDSGSWGQGTQVTVSS
notes: the model of the JN241-APJR complex deposited here (PDB 8XQJ) holds this chain; also called antagonistic antibody; sdAb antagonist; source: provided by Structure Therapeutics
B1: the binding result in data set [1] is “binds”.

B2: JN241 with the Fc tag removed (VHH)
VHH: B1 VHH
notes: as the VHH of m4; PDB 8XQJ holds the JN241 chain; also called sdAb; source: Fc tag removed
Consider B2, for which the binding result in data set [2] is “binds”.

B3: human WT APJR (apelin receptor), cryo-EM construct with a deletion of 50 residues from the C-terminus (receptor, UniProt P35414 1-330, looked up)
chain: MEEGGDFDNYYGADNQSECEYTDWKSSGALIPAIYMLVFLLGTTGNGLVLWTVFRSSREKRRSADIFIASLAVADLTFVVTLPLWATYTYRDYDWPFGTFFCKLSSYLIFVNMYASVFCLTGLSFDRYLAIVRPVANARLRLRVSGAVATAVLWVLAALLAMPVMVLRTTGDLENTTKVQCYMDYSMVATVSSEWAWEVGLGVSSTTVGFVVPFTIMLTCYFFIAQTIAGHFRKERIEGLRKRRRLLSIIVVLVVTFALCWMPYHLVKTLYMLGSLLHWPCDFDLFLMNIFPYCTCISYVNSCLNPFLYAFFDPRFRQACTSMLCCGQSR
notes: The N-terminal fusion is HA signal peptide, Flag tag, 10x His tag and BRIL, in pFastBac1; No cleavage of the fusion is mentioned; The protein is seen both as a monomer and as a homodimer; also called ProtA; ProtB; source: Trichoplusia ni (Hi5) insect cells, baculovirus; alone or co-expressed with Gi and/or JN241-9; purified (LMNG/CHS, Talon resin, SEC); not shown: His10, N-terminal, kept
Consider B3, for which the binding result in data set [3] was “binds”.
